Experimental data: article PMC8575140 (bioRxiv, 2021)

Target: SARS-CoV-2 receptor-binding domain (SARS-CoV-2, UniProt P0DTC2)

B1: NCI-CoV-1B5 VHH (VHH)
VHH: DVQLVESGGGSVQAGGSLRLSCTGSRYTYSTYCMGWFRQAPGKEEEAVAIINSGGGEPYYGDSVKGRFTISQDRAKNTVYLQMDGLQPDDTAIYYCVAADSHNSRCYLGRSYVNYWGQGTQVTVSS
IC50: 3.2 nM
